Tested on: Saccharomyces cerevisiae
Test: transcriptional activation domain activity (GFP:mCherry ratio, weighted mean of sorted bins, harmonized to initial dataset scale) (arbitrary fluorescence ratio units); higher = stronger transcriptional activation
Conditions: beta-estradiol 1 µM; induction time 4 h
Summary of the method: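 For this assay, yeast diploids with a GFP reporter carried barcoded protein tiles at URA3, each fused to an estradiol-inducible synthetic transcription factor. Induction was a 1:5 dilution into SC with 1 uM beta-estradiol for 4 hours at 30 °C, followed by sorting into 8 bins by GFP:mCherry ratio and barcode sequencing. Tiles under 50 reads were dropped, and activation activity was calculated as the read-weighted mean of bin median fluorescence, averaged across barcodes and linearly mapped onto the initial dataset scale.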

Sequence	transcriptional activation domain activity
MTVSWLRRLGTFLFEFFFFFSFFSFFFFLFSFFFFLFFLFSYFPFFSFFSFFS	21600
MHSSGWLWANISLLFPRLFFLTFFSYLLCDLAFRFDRLVCFLWLLFFQWSFII	52200
ICGMWLRGSFTFLSTVKDPHVLLRTMIKRDPELGFLWVGAFITGCHDRALREG	71200
IQTYEIVGLTSCSLNVVLLPFAFYLVTLCFKTSERSPLLSMLCRLFFLPLTCG	45100
MVNCLKVFLVVLLAPIPLAPPIFLLSFLALMVVDHEPCPYCSLLIILLLQSTC	31200
HVDQWTVIEQCLLYHQTNFIYFLFFAPLPPFLCLFFLLFVSLVFLCFDPFPLI	42500
WFAKFVVRLVYCLAWVRGQLLRRSSPIQTMMLALRCPHVLPWIDAGTPRLYIY	54700
YFMVYFIFYRNLFARLRSFDQFALVQLMSSFWVCIWYPFSMTSLCHRVVQYFN	69300
LSNANHWKFIHIDEDGKLWRSNEFLLDLRLYNQDQVVIIYRFLHYVVKCCYES	54300
MATAEPTKKRGRPKKVVLVEESAGNAEAVVAEVVKKTTTKKTSTKAPAAPVTT	40300
QLYCILNPPHLFVFPPKEISSVLFLVGVVHYVLYGLYYMLLLYNLFRFGLLTY	45700
RGFVVMLEGLFICGGLVIQAFLNLGLSHATGGVTWRFSLAFSCFFDLVVFFSI	46600
LFTFRLLRICGPFVARLPSAERLLGWSTLASILGLWWNPRFAQVFRGFTRHIS	61800
YFEIAGLTFFFYWYFYLLVGGIDCAWNKFVYVMVSHMSTMIVHVQITLSHFAM	32700
DSSAETGPGEDPSLVLPGLHMTLMRRFALKSKDRDRVSVEILGLLIRVLGVLG	59800
TSVLPIIAVHCAYKTPISDYILAFCYLLPYIYHSMGYLVRWLYLGLRVIFVAK	70400
IFLHIFLLVLLRLLFLLLSLFYFLLLPHFFYNQPSLLLRLFLNFFQLSLSILL	34100
RGTIRPGFLIYFFILFLWVFQIHCIMQIIVNRIALLHVSPTIVRRLKWGIFSI	66300
MTLITIIDLESFIFEDCIDLILFSQFLDSFQHSAVLTAYINWYTNADWWRSIV	66900
LLRRIMRYRNMHLLLSYAVELGFLRAIILCGRPSLSKVHHHVRFFLRDLLPAS	38800
MQGSGKLSGLIFLSCFFSLLFFFFSFLFFYFFLLSNQLLFFCPNLVLDVALFT	18000

Sequence	transcriptional activation domain activity
ITPYPVLLSGEDTSSKISRMRKVLRDRARTDNWIYLIPTLSTLAWLFNYRCRT	66100
QAARTSDYSIAQFRFLLKLLLVHGRWNYVRICKYTLGTFWKEMLFYSVQALYQ	15400
VRRLLWVTVIFDICFGMLYVLLAIFQCRPISYYWLGWDGEHQGTCLNVNGLAW	46600
MSEREREHRGGRQDRLTGRSRSRSVRRHEKGDKGADDGRQARERHRSRSPARK	27400
PKEAVASTPEEPAASEPVAAPALAAAEPVAAAEAPAAAPVPETKAEEVSIQHL	23600
MTDRCRVRCTKLIIIIKGIFFWVSLVSLLFFFLLILSAFSFFLLLLLYYLFTI	46200
MLCLTYLVFLRVYGHLLWVELGLFFFSFSKSNYHVIRHGLPFFCYNGAWMEFL	56900
MPPPRKPHRKSRYGCIQCKRRHVKCDEEKPCRRCLDREEQCSLKPDVAAADIT	17600
FSDGELSDDALDKQGKKEKKRKAKAIESGDATPVESKPEKERKKKKSKPEAET	31100
PATTSPAPRGLTASGQPRKKPGPKPKLKDPNAPEPEKKARKARKVVEAKDPAV	< 6570
EFPAPPARPPPSHTAPPAPPPPPPPPPPPAAGGGVPPPPPPPPPPATGGAPAP	30300
MILTSHLSFILFLFLFLFPFSFSSFLPFYLHYLFILPSILIFPSPPFLPSLFL	51200
MSFFWDTSLCACVTRIREMSFWEFLVGLAFFFFFLVKGSCICVACFFFFFFWS	34200
MRLLYCFFHPGRIFDWFCWIHHVFLLVFGWLPLDWLYNLWGLGSLPWTLQNMP	47300
IKPEIMGLLEIHRSIAQDIGVSLLTELINPNVSIGKMLRNCITVFTLINTLRH	77500
FPILLRFIFTHFRMLFSCQLFCLMGFRVECLDFDPGSFILFHLTFLWLPFVLF	53300
NSTIHNLLELVLLPELCGFCCFSMRFVVMIDLIGTLTLPSSVVYLVYLIYVVI	56700
EALMRRFISKGGFMTSRINWAIQSSGVDYLHLLIVSMEYLIRRFNLNARLAIT	49400
PLLLKGLQFTMAEEKTWSLLRQIMLLDNLPLIDPAPTRFMYLLLGAIPRLLNG	49700
HGRARPSRASASVPARKKTKSKVKKRASAAVVGSDDEDGEERPKKRRGGGGGA	33100
MGNGVRCLLFGKDFSFIFLLYRFSMWFLISPFQLPCWVLVILSCSCSSLSIFG	65700

Sequence	transcriptional activation domain activity
MSRKIYCTPAFSTIHLLYLHNFFLIPIYYLQTSLRNILSKLSFCLILSILLLP	52900
FALTFFWSLIGYWVPFFEAIHLFWWIGYRANYVPLMSADVAWRWFFKWDFPFF	62000
TLPGGTTGEFGRDRPTTNAFGSSTGAFGAPAANNNPFGAPAQPAGAFGQPSAL	44800
WLSHSQKKHCELCKTPFRFTKLYAPNMPKALPTHIFLSHMAKYILRNLLVWLR	61200
MSSPNEKMDVDRASPDRRSKSSRNHSTETHRTKRSHRSRSRGGERDKERRDRR	34300
FFRRLLLEIGWAHPLLVLCSATLLEPAHSRDHYVSKVFSHLSPEHAHVVGEIA	47500
TLTDKCFGAFEDENAIHFHNFHVVSPKYMVILVNCLYMWDLMKTVGLRKPWSG	68200
GLFRVAGRVLHVNRLNDDFDAGADYDLRKATPADLDPHVVASVLKSYLRTLRG	27100
QFFFFVLSFFFFVGFVGADDLCSFILFLLFFSTPFFFIGKASLLSSFFAFHST	51700
VSLRSLPYEVGFKQNFNLILNHDASLIKTTVRHLLVYCSLIKAIKLCLIFINK	52500
YILAVGLILRLISYLSRAKVRLMYHWSELWRNLLSLIRFLNTYSADLLSSSTP	66700
KFIGYQWAYFAVISGALLYAWSRVIMLFVLRILPQDIRLIAFIITSIYCLILL	24900
ATAANEEGEEGEATPKKTPRKRAAKKQDVDGDASPKKKGRGKKVSDDETNVKS	< 6570
LLAWGYVLFNPFAIYSLPYTVLFAFLSLSYLVLTFVLTLPSSLPFYHSKYWFQ	66900
DLYNHSYRLHRRKRPGMKEVYLSAMGFRMMGVKGFREWSFLWRVRLAAAPWWA	52600
KVNTNNDVNENNDLWNSYLQSMDDTTGKNSGNYQQVDNDDNMSLLNLPILEET	90400
MATPSTGAPPPKQIRFVNNQGQPPSKRRRVNAACLTCRKRKTRCDGEKPTCST	20200
PDFYPLFYSRLIPLSVISFLVYTALFFLVFWPQYLFLVIFHGWGAWPTAIILF	52600
FKEGVSLTVLDELYRWQKYAYGCDEIIFNPIFTWWKKGPISLQLRNFVWSIAP	57100
HDLLVDSLRLVMELLKAPGGLSVHALTAHLNILSFTVRLLDLCLDMALETPHH	84900
MIWREFFLFFLFFFFLFGIYGLRVAGLDYFVYGDLFVIINISYLFFWWVYAIY	45900

Sequence	transcriptional activation domain activity
AKADGKRGRTGTGARRGKGKKVTREARGRRKVKRRRGARAGKGSAGRERERGE	34800
ADEEDADEEDADEEDAGEKDAGEKDAGEEGAGEEDAGEEDASAIDAAACRMVQ	29800
MHLLTFTIPSYRAVCKVFPFLFWLSLFLTHWFVYSFSFLQAFFSFCFTWAWCV	69900
MYHPPWVLVGKCGSKEVRDELARHQLIACSRDLSVHVLKVDLLRKSWLLGHWR	58900
ILLTCLLQICCRFVQEKQTRCLQILLHYIGSQASMHAGARPLELLCRSLLEAM	40900
VVHLLSPKRLDILWGVNPKGIHIFRMVLFISLLFSYLGRSGSLMLSIARIFTY	45900
LIVTALVWLFQASTEQFTFVALLMYRLKYPVRRVAWLLKFSAIQNLIPKFGFA	61200
LILGLVHFLYVFFVQIFSHNFTLIPLALDCNFTWEYSVTFVWIGLHTLVAFPI	54500
KATYHAMLHICRDIAKETLFFFHLVQEHPDDLPLVQSVLILLISCISRVVCTL	55000
MTKPIIIKINHIFALRHYYLPYFHPYILFVFFSSLFTLRGTMWLILLFFGSFA	50300
TGDDDAAKTTPKKRGDADGTPKTAKSTPRKRKTKAEGDGECSPKKRGRKTKVV	36500
GCKRESQEREEDKNIEKIRKKKQSVVNRKSKRRSETNRRNIKRNNRQHAARER	55600
DPPPHPSCPPGSLIIKMVVYLRRRRLLVTWCEDPSVPEVRCLVVATQSQWVPM	55300
MVRGLFLCFLFSCPWRLLSCCLFLQIFLFSLHLFALKIYVSFFLVHFHACFWA	60900
YVAPGVASPIPVNYIWTPFASWRLVAILISLLSLYSWGMLIFFFWFLFWLLLY	< 6570
AAEDVEGEGEAKEKKSKKRRAEANGVGEGEEGERKKKKRKEKAVEQTEEEVKP	34800
RAYGLLKRYILVPATFGYRCAQNIGWCTIPPRVQSLTIFAFVILNLILCCISY	58000
HFSPSLSISSLPSLCCLFFFIIFSTSLLWSFFPLPYLTSPYLTLPYTTFFLFP	48000
APPPPPPPPPPAPPARSGAPPPPPPPPPPPMGGAPPPPPPPMGGPPPPPPPPP	36400
NDREDDGEDEEEDNGGGGRQQRRKKGSAQRAGKLKPATESDEDEDKPEEEADD	29200
